{"source": "patent US20250144202A1", "about": "(KAIMI BIOMEDICINE CHENGDU, published 2025)", "target": "T1, FcγRIIA protein (UniProt P12318 36-218)", "T1 construct": "also called CD32a", "T1 sequence": "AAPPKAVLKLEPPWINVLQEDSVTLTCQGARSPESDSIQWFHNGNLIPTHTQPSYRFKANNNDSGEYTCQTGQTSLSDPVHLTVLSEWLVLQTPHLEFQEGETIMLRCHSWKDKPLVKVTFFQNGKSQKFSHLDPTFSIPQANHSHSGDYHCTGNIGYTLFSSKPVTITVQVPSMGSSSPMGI", "experiment": "BLI, multi-concentration (5000 to 312.5 nM of the Fc variant)"}
{"binder": "Seq2-Sf9 (murine IgG1 Fc variant with three mutations, alanine at positions 223, 228 and 230, expressed in Sf9 insect cells) (other, Fc fragment alone, expressed from the pFastBacHTa-gp64 vector in Sf9 cells and purified by Protein A; about 26 kDa on SDS-PAGE; also called mouse Fc with three mutations) VDKKIVPADCGCAPCICAVPEVSSVFIFPPKPKDVLTITLTPKVTCVVVDISKDDPEVQFSWFVDDVEVHTAQTQPREEQFNSTFRSVSELPIMHQDWLNGKEFKCRVNSAAFPAPIEKTISKTKGRPKAPQVYTIPPPKEQMAKDKVSLTCMITDFFPEDITVEWQWNGQPAENYKNTQPIMDTDGSYFVYSKLNVQKSNWEAGNTFTCSVLHEGLHNHHTEKSLSHSPGL", "values": [{"measurement": "Kd", "value": 789, "unit": "nM"}]}
{"binder": "Seq3-Sf9 (murine IgG1 Fc variant with five mutations, alanine at 223, 228 and 230, leucine at 330, glutamic acid at 332, expressed in Sf9 insect cells) (other, Fc fragment alone, expressed from the pFastBacHTa-gp64 vector in Sf9 cells and purified by Protein A; about 26 kDa on SDS-PAGE; also called mouse Fc with five mutations) VDKKIVPADCGCAPCICAVPEVSSVFIFPPKPKDVLTITLTPKVTCVVVDISKDDPEVQFSWFVDDVEVHTAQTQPREEQFNSTFRSVSELPIMHQDWLNGKEFKCRVNSAAFPLPEEKTISKTKGRPKAPQVYTIPPPKEQMAKDKVSLTCMITDFFPEDITVEWQWNGQPAENYKNTQPIMDTDGSYFVYSKLNVQKSNWEAGNTFTCSVLHEGLHNHHTEKSLSHSPGL", "values": [{"measurement": "Kd", "value": 450, "unit": "nM"}]}
